Source: patent US20050266242A1

Target: seed (assembled NM protein, preformed fibers used to seed fiber elongation in Example 10) (Saccharomyces cerevisiae) (UniProt P05453)
Experiment: seeded fiber elongation, sedimentation and wavelength shift assays, Lineweaver-Burk plot

Sequence of seed (assembled NM protein, preformed fibers used to seed fiber elongation in Example 10) (Saccharomyces cerevisiae) (P05453 1-253): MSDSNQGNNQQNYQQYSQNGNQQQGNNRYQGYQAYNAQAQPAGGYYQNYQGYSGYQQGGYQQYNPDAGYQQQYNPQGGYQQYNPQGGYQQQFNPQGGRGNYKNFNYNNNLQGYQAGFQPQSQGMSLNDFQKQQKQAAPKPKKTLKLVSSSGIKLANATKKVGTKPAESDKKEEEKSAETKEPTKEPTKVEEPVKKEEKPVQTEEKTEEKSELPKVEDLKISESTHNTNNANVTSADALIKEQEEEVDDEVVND

## NM^T158C-acrylodan (from UniProt P05453 1-253) (other; other documents disagree on this pair)
  Km: 0.12 µM
  Vmax (maximal rate of conformational conversion): 0.001 µmol/s
  kconf (rate constant of conformational conversion): 0.005 s⁻¹
  kconf/Km (conformational conversion efficiency): 42000 M⁻¹ s⁻¹
